Assay results from patent US20210113690A1 (BERLIN CHEMIE, published 2021).

Legend:
AVYFHQHS = target: T1, AVYFHQHS; experiment: peptide microarray, 8mer on the chip, 1 µg/mL LY75_A1, anti-human IgG Alexa 647
T1 construct: LY75 8mer on the microarray
T1 peptide: AVYFHQHS
Procedure: (§1) The peptide microarray analysis was performed by LC Sciences, Houston Tex., in brief the method comprised the following steps: —Contiguous 8mer peptides of LY75 protein having […] spanning residues 216 to 1666 of the full length LY75 protein were synthesized and immobilized on a microarray chip. The chip comprised three panels such that the experiment was performed in triplicate. […] The binding assay was performed under the following conditions:—
(§2) The microarray comprising the contiguous peptides in triplicate was washed with 1 mL of binding buffer at 4° C. for 20 min. […] The array was again washed with 0.5 mL of washing buffer at 4° C. for 30 min then incubated with 25 ng/mL anti-human IgG Alexa 647 conjugate in binding buffer (pH 7.0) at 4° C. for 1 hr. The array was again washed with 0.5 mL of washing buffer at 4° C. for 30 min.

GWHFYDDR (765-772) = target: T2, GWHFYDDR (765-772) (human); experiment: as above
T2 construct: Tryptic peptide of recombinant LY75, found by LC-MS/MS after pull down
T2 peptide: GWHFYDDR
Procedure: as §1, §2

SCYKVFHA = target: T3, SCYKVFHA; experiment: as above
T3 construct: LY75 8mer on the microarray
T3 peptide: SCYKVFHA
Procedure: as §1, §2

YDDREFIY = target: T4, YDDREFIY; experiment: as above
T4 construct: LY75 8mer on the microarray; aa 769-776 counted from Region 3 (aa761-780)
T4 peptide: YDDREFIY
Procedure: as §1, §2

QYKGHCYK = target: T5, QYKGHCYK; experiment: as above
T5 construct: LY75 8mer on the microarray
T5 peptide: QYKGHCYK
Procedure: as §1, §2

KLSRLTYS = target: T6, KLSRLTYS; experiment: as above
T6 construct: LY75 8mer on the microarray
T6 peptide: KLSRLTYS
Procedure: as §1, §2

DHFTYSRY = target: T7, DHFTYSRY; experiment: as above
T7 construct: LY75 8mer on the microarray
T7 peptide: DHFTYSRY
Procedure: as §1, §2

FVSLCQKY = target: T8, FVSLCQKY; experiment: as above
T8 construct: LY75 8mer on the microarray
T8 peptide: FVSLCQKY
Procedure: as §1, §2

ELTYSNFH = target: T9, ELTYSNFH; experiment: as above
T9 construct: LY75 8mer on the microarray
T9 peptide: ELTYSNFH
Procedure: as §1, §2

YSRYPWHR = target: T10, YSRYPWHR; experiment: as above
T10 construct: LY75 8mer on the microarray
T10 peptide: YSRYPWHR
Procedure: as §1, §2

YFHQHSIL = target: T11, YFHQHSIL; experiment: as above
T11 construct: LY75 8mer on the microarray
T11 peptide: YFHQHSIL
Procedure: as §1, §2

EVKDCRSF = target: T12, EVKDCRSF; experiment: as above
T12 construct: LY75 8mer on the microarray
T12 peptide: EVKDCRSF
Procedure: as §1, §2

HRFPVTFG = target: T13, HRFPVTFG; experiment: as above
T13 construct: LY75 8mer on the microarray
T13 peptide: HRFPVTFG
Procedure: as §1, §2

SLSCYKVF = target: T14, SLSCYKVF; experiment: as above
T14 construct: LY75 8mer on the microarray
T14 peptide: SLSCYKVF
Procedure: as §1, §2

WHRFPVTF = target: T15, WHRFPVTF; experiment: as above
T15 construct: LY75 8mer on the microarray
T15 peptide: WHRFPVTF
Procedure: as §1, §2

DDHFTYSR = target: T16, DDHFTYSR; experiment: as above
T16 construct: LY75 8mer on the microarray
T16 peptide: DDHFTYSR
Procedure: as §1, §2

LSCYKVFH = target: T17, LSCYKVFH; experiment: as above
T17 construct: LY75 8mer on the microarray
T17 peptide: LSCYKVFH
Procedure: as §1, §2

SCSERHFV = target: T18, SCSERHFV; experiment: as above
T18 construct: LY75 8mer on the microarray
T18 peptide: SCSERHFV
Procedure: as §1, §2

RELTYSNF = target: T19, RELTYSNF; experiment: as above
T19 construct: LY75 8mer on the microarray
T19 peptide: RELTYSNF
Procedure: as §1, §2

TSCSERHF = target: T20, TSCSERHF; experiment: as above
T20 construct: LY75 8mer on the microarray
T20 peptide: TSCSERHF
Procedure: as §1, §2

HFTYSRYP = target: T21, HFTYSRYP; experiment: as above
T21 construct: LY75 8mer on the microarray
T21 peptide: HFTYSRYP
Procedure: as §1, §2

LY75 761-780 = target: T22, LY75 761-780 (human); experiment: peptide microarray; region identified by signal above the cut off
T22 construct: Region put together from overlapping 8mers on the array; also called Region 3 (aa761-780)
T22 peptide: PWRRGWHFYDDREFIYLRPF
Procedure: as §1, §2

LY75 1107-1118 = target: T23, LY75 1107-1118 (human); experiment: as above
T23 construct: Region put together from overlapping 8mers on the array
T23 peptide: TVKYLNNLYKII
Procedure: as §1, §2

LY75 1029-1040 = target: T24, LY75 1029-1040 (human); experiment: as above
T24 construct: Region put together from overlapping 8mers on the array
T24 peptide: RELTYSNFHPLL
Procedure: as §1, §2

LY75 883-901 = target: T25, LY75 883-901 (human); experiment: as above
T25 construct: Region put together from overlapping 8mers on the array
T25 peptide: DDHFTYSRYPWHRFPVTFG
Procedure: as §1, §2

LY75 1077-1093 = target: T26, LY75 1077-1093 (human); experiment: as above
T26 construct: Region put together from overlapping 8mers on the array
T26 peptide: FTSCSERHFVSLCQKYS
Procedure: as §1, §2

[1] = target: Contiguous 8mer peptides of LY75 protein spanning residues 216 to 1666 of the full length LY75 protein (peptide microarray); experiment: peptide microarray, 1 ug/mL LY75_A1, scanned at 635 nm; cut off for non-specific binding 3000

B1: LY75_A1 monoclonal antibody (antibody, human IgG1, kappa, V domains shown)
VH: EVQLVESGGGLVKPGGSLRLSCAASGFTYSNAWMSWVRQAPGKGLEWVGRIKSKTDGGTTDYAAPVQGRFTISRDDSKNTLYLQMNSLKTEDTAVYYCTIFGVVSFDYWGQGTLVTVSS
VL: DVQMTQSPSSLSASVGDRVTITCRASQSISDYLSWYQQRPGKAPNLLIYAASNLKTGVPSRFSGSGSGTDFTLTISTLQPEDFATYYCQQSYRSPWTFGQGTKVEIKR
notes: also called LY75A1 antibody; antibody LY75_A1
binding result (AVYFHQHS): binds | binding result (GWHFYDDR (765-772)): binds | binding result (SCYKVFHA): binds | binding result (YDDREFIY): binds | binding result (QYKGHCYK): binds | binding result (KLSRLTYS): binds | binding result (DHFTYSRY): binds | binding result (FVSLCQKY): binds | binding result (ELTYSNFH): binds | binding result (YSRYPWHR): binds | binding result (YFHQHSIL): binds | binding result (EVKDCRSF): binds | binding result (HRFPVTFG): binds | binding result (SLSCYKVF): binds | binding result (WHRFPVTF): binds | binding result (DDHFTYSR): binds | binding result (LSCYKVFH): binds | binding result (SCSERHFV): binds | binding result (RELTYSNF): binds | binding result (TSCSERHF): binds | binding result (HFTYSRYP): binds | binding result (LY75 761-780): binds | binding result (LY75 1107-1118): binds | binding result (LY75 1029-1040): binds | binding result (LY75 883-901): binds | binding result (LY75 1077-1093): binds | average signal intensity of all spots (signal intensity (scale 1-65535)) [1]: 885 | maximum signal intensity (signal intensity (scale 1-65535)) [1]: 25000
